Measurements: patent US20240132578A1

Key:
Test in all cases: cell-based or functional assay
[1] = target: HIV-1 Env of isolate MGRM-A-001 (pseudovirus) (HIV-1)
[2] = target: HIV-1 JR-CSF Env R419A (HIV-1 (isolate JR-CSF)) (UniProt P20871)
[3] = target: HIV-1 Env of isolate MGRM-C-002 (HIV-1)
[4] = target: HIV-1 Env of isolate MGRM-AG-001 (subtype AG) (HIV-1)
[5] = target: HIV-1 Env of isolate MGRM-Chronic-B-003 (HIV-1)
[6] = target: HIV-1 Env of isolate 92TH021 (subtype AE) (HIV-1)
[7] = target: HIV-1 JR-CSF Env S393A (HIV-1 (isolate JR-CSF)) (UniProt P20871)
[8] = target: HIV-1 JR-CSF Env I420A (HIV-1 (isolate JR-CSF)) (UniProt P20871)
[9] = target: HIV-1 Env of isolate CAAN.A2 (HIV-1)
[10] = target: HIV-1 Env of isolate MGRM-F1-010 (HIV-1)
[11] = target: HIV-1 Env of pseudovirus isolate MGRM-C-025 (clade C) (HIV-1)
[12] = target: HIV-1 Env of isolate MGRM-C-001 (HIV-1)
[13] = target: HIV-1 JR-CSF Env T413A (HIV-1 (isolate JR-CSF)) (UniProt P20871)
[14] = target: HIV-1 Env of isolate MGRM-AG-006 (subtype AG) (HIV-1)
[15] = target: HIV-1 Env of isolate MGRM-AG-008 (subtype AG) (HIV-1)
[16] = target: HIV-1 JR-CSF Env I423A (I4234 in the source) (HIV-1 (isolate JR-CSF)) (UniProt P20871)
[17] = target: HIV-1 Env of isolate MGRM-D-019 (pseudovirus) (HIV-1)

Substance	IC50 (µg/mL), pseudovirus neutralization [1]	Fold IC50 increase relative to wild-type (pseudovirus neutralization) [2]	IC50 (µg/mL), pseudovirus neutralization [3]	IC50, pseudovirus neutralization [4]	IC50 (µg/mL), pseudovirus neutralization [5]	IC50, pseudovirus neutralization [6]	Fold IC50 increase relative to wild-type (pseudovirus neutralization) [7]	Fold IC50 increase relative to wild-type (pseudovirus neutralization) [8]	IC50 (µg/mL), pseudovirus neutralization [9]	IC50 (µg/mL), pseudovirus neutralization [10]	IC50, pseudovirus neutralization [11]	IC50 (µg/mL), pseudovirus neutralization [12]	Fold IC50 increase relative to wild-type (pseudovirus neutralization) [13]	IC50, pseudovirus neutralization [14]	IC50, pseudovirus neutralization [15]	Fold IC50 increase relative to wild-type (pseudovirus neutralization) [16]	IC50 (µg/mL), pseudovirus neutralization [17]
5147_N06 (PGT-130) (antibody)	> 50 µg/mL	2.6 fold	> 50 µg/mL	> 50 mg/L	> 50 µg/mL	0.009 mg/L	0.7 fold	9.8 fold	> 50 µg/mL	> 50 µg/mL	> 50 mg/L	> 50 µg/mL	0.6 fold	0.009 mg/L	> 50 mg/L	> 1000 fold	> 50 µg/mL
5345_I01 (PGT-137) (antibody)	> 50 µg/mL		8.03 µg/mL	> 50 mg/L	> 50 µg/mL	> 50 mg/L			> 50 µg/mL	> 50 µg/mL	> 50 mg/L	21.5 µg/mL		28.3 mg/L	> 50 mg/L		> 50 µg/mL
5114_A19 (PGT-128) (antibody)	> 50 µg/mL	0.5 fold	0.019 µg/mL	4.73 mg/L	0.007 µg/mL	0.01 mg/L	1.4 fold	0.8 fold	1.48 µg/mL	16.7 µg/mL	10.5 mg/L	> 50 µg/mL	1 fold	0.009 mg/L	0.668 mg/L	2.6 fold	> 50 µg/mL
5329_C19 (PGT-136) (antibody)	> 50 µg/mL		> 50 µg/mL	> 50 mg/L	> 50 µg/mL	> 50 mg/L			> 50 µg/mL	> 50 µg/mL	> 50 mg/L	7.52 µg/mL		29.1 mg/L	> 50 mg/L		> 50 µg/mL
5136_H01 (PGT-131) (antibody)	> 50 µg/mL	1.7 fold	> 50 µg/mL	> 50 mg/L	> 50 µg/mL	0.014 mg/L	1.1 fold	153 fold	> 50 µg/mL	> 50 µg/mL	> 50 mg/L	> 50 µg/mL	0.6 fold	0.019 mg/L	> 50 mg/L	> 80 fold	> 50 µg/mL
5343_B08 (PGT-135) (antibody)	> 50 µg/mL	3.9 fold	> 50 µg/mL	> 50 mg/L	> 50 µg/mL	> 50 mg/L	0.9 fold	1.4 fold	5.15 µg/mL	> 50 µg/mL	> 50 mg/L	10.1 µg/mL	0.3 fold	17.9 mg/L	> 50 mg/L	0.1 fold	> 50 µg/mL
